This is an account of results in patent US20040058416A1 (published 2004).

Experiment [1] has as its target T1, trkB-IgG immunoadhesin (human trkB extracellular domain fused to human IgG-1 Fc) (human).
T1 construct: also called chimeras containing trkB
In words: competitive displacement of iodinated BDNF from trkB-IgG by unlabelled BDNF.

Experiment [2] concerns the target T1, trkB-IgG immunoadhesin (human trkB …). Nature of the experiment: competitive displacement of iodinated BDNF from trkB-IgG by unlabelled NT3.
Experiment [3] concerns the target T2, trkA-IgG immunoadhesin (human trkA extracellular domain fused to human IgG-1 Fc) (human, UniProt P04629 33-408).
T2 construct: also called native trkA; chimeras containing trkA extracellular domain; not shown: human IgG-1 hinge-CH2-CH3 (aspartic acid 216 to residue 441)
In words: competitive displacement of iodinated NGF from trkA-IgG by unlabelled NT3.

Experiment [4] has as its target T3, nerve growth factor (NGF) (UniProt P01138 122-241, limits assumed, iodinated (125I) where used as tracer).
T3 construct: also called 125I-NGF; labelled NGF
Nature of the experiment: saturation binding with 125I-NGF, immunoadhesin.

Experiment [5] has as its target T3, nerve growth factor (NGF). In words: NGF binding to immunoadhesin (competitive displacement, as in Example 4).

T1 sequence (Q16620 32-423): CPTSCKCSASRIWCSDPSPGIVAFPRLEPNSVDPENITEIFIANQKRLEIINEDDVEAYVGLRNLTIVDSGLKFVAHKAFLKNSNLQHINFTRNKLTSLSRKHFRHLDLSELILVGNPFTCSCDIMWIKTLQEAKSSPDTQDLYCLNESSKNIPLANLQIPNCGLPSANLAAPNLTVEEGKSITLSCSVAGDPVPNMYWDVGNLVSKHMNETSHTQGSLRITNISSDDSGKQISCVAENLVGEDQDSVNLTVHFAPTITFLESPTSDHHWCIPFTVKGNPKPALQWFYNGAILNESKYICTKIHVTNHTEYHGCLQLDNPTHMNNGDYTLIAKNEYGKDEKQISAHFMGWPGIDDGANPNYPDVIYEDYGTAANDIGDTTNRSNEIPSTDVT

B1: brain-derived neurotrophic factor (BDNF) (ligand, UniProt P23560 129-247, looked up)
chain: HSDPARRGELSVCDSISEWVTAADKKTAVDMSGGTVTVLEKVPVSKGQLKQYFYETKCNPMGYTKEGCRGIDKRHWNSQCRTTQSYVRALTMDSKKRIGWRFIRIDTSCVCTLTIKRGR
modifications: radiolabelled (iodinated) where used as tracer
notes: also called NT-2; labelled BDNF
What is called IC50 is the midpoint of a concentration-inhibition curve. Read a low IC50 as greater potency. The molecule B1 had an IC50 in experiment [1] of 0.081 nM.

B2: neurotrophin-3 (NT-3) (ligand, UniProt P20783 139-257, looked up)
chain: YAEHKSHRGEYSVCDSESLWVTDKSSAIDIRGHQVTVLGEIKTGNSPVKQYFYETRCKEARPVKNGCRGIDDKHWNSQCKTSQTYVRALTSENNKLVGWRWIRIDTSCVCALSRKIGRT
modifications: radiolabelled (iodinated) where used as tracer
notes: also called labelled NT3; cold NT3
For the molecule B2, the concentration for half-maximal inhibition (IC50) in experiment [2] was 18 nM; in experiment [3], 20 nM.

B3: trkC variant s5A immunoadhesin (trkC Val297 to Thr420 replaced with trkA Ser277 to Val402) (Fc fusion, not shown: a dimerising Fc or GST)
chain: CPANCVCSKTEINCRRPDDGNLFPLLEGQDSGNSNGNANINITDISRNITSIHIENWRSLHTLNAVDMELYTGLQKLTIKNSGLRSIQPRAFAKNPHLRYINLSSNRLTTLSWQLFQTLSLRELQLEQNFFNCSCDIRWMQLWQEQGEAKLNSQNLYCINADGSQLPLFRMNISQCDLPEISVSHVNLTVREGDNAVITCNGSGSPLPDVDWIVTGLQSINTHQTNLNWTNVHAINLTLVNVTSEDNGFTLTCIAENVVGMSNASSVQVNVSFPASVQLHTAVEMHHWCIPFSVDGQPAPSLRWLFNGSVLNETSFIFTEFLEPAANETVRHGCLRLNQPTHVNNGNYTLLAANPFGQASASIMAAFMDNPFEFNPEDPIPDTNSTSGDPV
notes: also called s5A chimera
For orientation: Kd means a measure of binding affinity in units of concentration. Low values mean a tighter complex, high ones a looser complex. In the case of B3, in experiment [4], the Kd stood at 0.0386 nM.

B4: trkA variant ?4A immunoadhesin (deletion of Val193 to Val282 of trkA) (Fc fusion, not shown: a dimerising Fc or GST)
chain: AAPCPDACCPHGSSGLRCTRDGALDSLHHLPGAENLTELYIENQQHLQHLELRDLRGLGELRNLTIVKSGLRFVAPDAFHFTPRLSRLNLSFNALESLSWKTVQGLSLQELVLSGNPLHCSCALRWLQRWEEEGLGGVPEQKLQCHGQGPLAHMPNASCGSFPASVQLHTAVEMHHWCIPFSVDGQPAPSLRWLFNGSVLNETSFIFTEFLEPAANETVRHGCLRLNQPTHVNNGNYTLLAANPFGQASASIMAAFMDNPFEFNPEDPIPDTNSTSGDPV
notes: 'Mature' variant
Take B4: in experiment [5], the “fold reduction of affinity for NGF relative to native trkA” value is roughly 2 fold.
